The target of data set [1] is T1, WER 12-130 (WER-R2R3) (Arabidopsis, UniProt Q9SEI0 12-130).
T1 sequence: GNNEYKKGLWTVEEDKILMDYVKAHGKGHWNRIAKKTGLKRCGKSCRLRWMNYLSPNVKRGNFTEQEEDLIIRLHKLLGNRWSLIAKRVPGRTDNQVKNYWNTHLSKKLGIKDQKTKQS
Briefly: ITC; ITC: 150 mM NaCl, 20 mM HEPES pH 7.5, 25 C, 400 uM protein into 20 uM DNA; EMSA: 150 mM NaCl, 20 mM Tris-HCl pH 8.0, on ice 1 h, 0.1 uM DNA, 6% native PAGE 0.5x TBE. As to conditions: protein: recombinant; tags: 6xHis-SUMO removed by Ulp1; blunt.

The target in data set [2] is T1, WER 12-130 (WER-R2R3). The description is as above. Conditions: protein: recombinant; tags: 6xHis-SUMO removed by Ulp1; blunt. This is another data set of the same source.
Data set [3] concerns the target T1, WER 12-130 (WER-R2R3). Described as above. As to conditions: protein: recombinant; tags: 6xHis-SUMO removed by Ulp1; blunt. This is another data set of the same source.
Data set [4] has as its target T1, WER 12-130 (WER-R2R3). Put plainly: crystal structure (2.15 A); ITC: 150 mM NaCl, 20 mM HEPES pH 7.5, 25 C, 400 uM protein into 20 uM DNA; EMSA: 150 mM NaCl, 20 mM Tris-HCl pH 8.0, on ice 1 h, 0.1 uM DNA, 6% native PAGE 0.5x TBE. Conditions: protein: recombinant; tags: 6xHis-SUMO removed by Ulp1; 5' overhang 1 nt at both ends. (In general: A gel shift assay detects complexes by their altered migration in electrophoresis.)

B1: C10:G13* (dsDNA)
DNA 1: AAATTCTCCCACCGCATTTTC
DNA 2: GAAAATGCGGTGGGAGAATTT
Regarding B1, the Kd (in general, a measure of binding affinity in units of concentration) with WER 12-130 (WER-R2R3) [1] came to 2 µM.

B2: C14:G9* (dsDNA)
DNA 1: AAATTCTCCAACCCCATTTTC
DNA 2: GAAAATGGGGTTGGAGAATTT
In the case of B2, the binding signal with WER 12-130 (WER-R2R3) [2] is 40 fold decrease in affinity vs N1.

B3: 6mA10,6mA11 DNA (6mA6mAC) (dsDNA)
DNA 1: AAATTCTCCAACCGCATTTTC
DNA 2: GAAAATGCGGTTGGAGAATTT
modifications: 6mA at A10 and A11 of strand 1
Consider B3, for which, in the data set with WER 12-130 (WER-R2R3) [3], the binding signal was > 20 fold decrease in affinity vs N1.

B4: GL2 promoter WER target DNA (dsDNA)
DNA 1: AAATTCTCCAACCGCATTTTC
DNA 2: GAAAATGCGGTTGGAGAATTT
In the case of B4, the Kd in the data set with WER 12-130 (WER-R2R3) [1] was around 0.051 µM.

B5: 6mA10 DNA (6mAAC) (dsDNA)
DNA 1: AAATTCTCCAACCGCATTTTC
DNA 2: GAAAATGCGGTTGGAGAATTT
modifications: 6mA at A10 of strand 1
Consider B5, for which, in the data set with WER 12-130 (WER-R2R3) [3], the binding signal is 12 fold decrease in affinity vs N1.

B6: 6mA11 DNA (A6mAC) (dsDNA)
DNA 1: AAATTCTCCAACCGCATTTTC
DNA 2: GAAAATGCGGTTGGAGAATTT
modifications: 6mA at A11 of strand 1
In the case of B6, the binding signal with WER 12-130 (WER-R2R3) [3] is 5 fold decrease in affinity vs N1.

B7: A12:T11* (dsDNA)
DNA 1: AAATTCTCCAAACGCATTTTC
DNA 2: GAAAATGCGTTTGGAGAATTT
With B7, the Kd in the data set with WER 12-130 (WER-R2R3) [1] turned out to be 2.59 µM.

B8: crystal DNA (dsDNA)
DNA 1: AAATTCTCCAACCGCATTTTC
DNA 2: CGAAAATGCGGTTGGAGAATT
B8: in the data set with WER 12-130 (WER-R2R3) [4], the binding result is “binds”.

B9: A14:T9* (dsDNA)
DNA 1: AAATTCTCCAACCACATTTTC
DNA 2: GAAAATGTGGTTGGAGAATTT
In the case of B9, in the data set with WER 12-130 (WER-R2R3) [1], the binding result is listed as “binds”.

B10: 5mC12 DNA (AA5mC) (dsDNA)
DNA 1: AAATTCTCCAACCGCATTTTC
DNA 2: GAAAATGCGGTTGGAGAATTT
modifications: 5mC at C12 of strand 1
Consider B10, for which the Kd with WER 12-130 (WER-R2R3) [1] was found to be 2.34 µM.

B11: T14:A9* (dsDNA)
DNA 1: AAATTCTCCAACCTCATTTTC
DNA 2: GAAAATGAGGTTGGAGAATTT
Consider B11, for which the binding result with WER 12-130 (WER-R2R3) [1] is recorded as “binds”.

The values above are taken from paper PMC7145699, “Structural insights into target DNA recognition by R2R3-MYB transcription factors”.
